Target: receptor-binding domain (RBD) (residues 319-541) of the SARS-CoV-2 spike (S) protein (SARS-CoV-2, ancestral Wuhan-Hu-1 …, UniProt P0DTC2)

B1: XGv265 (antibody, V domains shown)
VH: QITLKESGPTLVKPTQTLTLTCNFSGFSLNTYGVGVGWIRQPPGKALEWLALIYWDGDERYGPFFKNKVTIAKDTSKNQVVLTMTNMDPVDTATYYCARHLIPTIFDYWGQGTLVTVSS
VL: QSALTQPASVSGSPGQSITISCTGTSSDVGGSNYVSWYQHHPDRAPKLLIYEVTNRPSGVSNRFSGSKSANTASLTISGLQAEDEADYYCSSYTTTSTHILFGGGTKLTV
binding result: binds

B2: XG005 (antibody, V domains shown)
VH: QVTLRESGPTLVKPKQTLTLTCTFSGFSLSTPGGGVGWIRQPPGKALEWLALIYWDDDKRYSPSLKSSLTITKDTSKNQVVLTMTNMDPVDTATYYCARLTAADTIFDCWGQGTLVTVSS
VL: QSALTQPASVSGSPGLSITISCTATSSDVGAYNYVSWYQQHPGQAPKLMIYDVSKRPSGVSNRFSGSKSANTASLTISGLQAEDEADYYCSSYTTTSVVFGGGTKLTVL
binding result: binds
